Experimental data reported in patent publication US20230002480A1.

Tests used:
Assay in all cases: cell-based or functional assay
[1] = target: MuLV envelope (negative control pseudovirus) (MuLV)
[2] = target: HIV-1 Env of pseudovirus 1056_10_TA11_1826 (clade B (T/F)) (HIV-1)
[3] = target: HIV-1 Env of pseudovirus CNE20 (clade BC) (HIV-1)
[4] = target: HIV-1 Env of pseudovirus CNE58 (clade BC) (HIV-1)
[5] = target: HIV-1 Env of pseudovirus Ce2010_F5 (clade C (T/F)) (HIV-1)
[6] = target: HIV-1 Env of pseudovirus Ce2060_G9 (clade C (T/F)) (HIV-1)
[7] = target: HIV-1 Env of pseudovirus HIV-001428-2.42 (clade C) (HIV-1)
[8] = target: HIV-1 Env of pseudovirus MS208.A1 (clade A) (HIV-1)
[9] = target: HIV-1 Env of pseudovirus Q23.17 (clade A) (HIV-1)
[10] = target: HIV-1 Env of pseudovirus Q842.d12 (clade A) (HIV-1)
[11] = target: HIV-1 Env of pseudovirus ZM197M.PB7 (clade C) (HIV-1)
[12] = target: HIV-1 Env of pseudovirus ZM214M.PL15 (clade C) (HIV-1)
[13] = target: HIV-1 Env of pseudovirus ZM53M.PB12 (clade C) (HIV-1)
[14] = target: HIV-1 Env pseudovirus 231966.c02 (HIV-1)
[15] = target: HIV-1 Env pseudovirus 3016.v5.c45 (HIV-1)
[16] = target: HIV-1 Env pseudovirus 3103.v3.c10 (HIV-1)
[17] = target: HIV-1 Env pseudovirus 3817.v2.c59 (HIV-1)
[18] = target: HIV-1 Env pseudovirus 6480.v4.c25 (HIV-1)
[19] = target: HIV-1 Env pseudovirus 6545.v4.c1 (HIV-1)
[20] = target: HIV-1 Env pseudovirus 928-28 (HIV-1)
[21] = target: HIV-1 Env pseudovirus C4118.c09 (HIV-1)
[22] = target: HIV-1 Env pseudovirus P0402_c2_11 (HIV-1)
[23] = target: HIV-1 Env pseudovirus T250-4 (HIV-1)
[24] = target: HIV-1 Env pseudovirus T278-50 (HIV-1)
[25] = target: HIV-1 Env pseudovirus X1254_c3 (HIV-1)
[26] = target: HIV-1 Env pseudovirus X1632_S2_B10 (HIV-1)
[27] = target: HIV-1 Env pseudovirus X2088_c9 (HIV-1)

## N49P6 (antibody)
[1]
  IC50: > 50 µg/mL
  IC80: > 50 µg/mL
  MPI: 0

## N49P7 (antibody)
[1]
  IC50, neutralization titer in TZM.bl cells: > 50 µg/mL
  IC80, neutralization titer in TZM.bl cells: > 50 µg/mL
  MPI, neutralization in TZM.bl cells: 9

## N49P7.1 (antibody)
[1]
  IC50, neutralization titer in TZM.bl cells: > 50 µg/mL
  IC80, neutralization titer in TZM.bl cells: > 50 µg/mL
  MPI, neutralization in TZM.bl cells: 4

## N49P7.2 (antibody)
[2]
  IC50: 0.114 µg/mL
  IC80: 0.771 µg/mL
  MPI: 100
[3]
  IC50: 0.119 µg/mL
  IC80: 0.574 µg/mL
  MPI: 99
[4]
  IC50: 0.045 µg/mL
  IC80: 0.129 µg/mL
  MPI: 100
[5]
  IC50: 0.398 µg/mL
  IC80: 1.29 µg/mL
  MPI: 100
[6]
  IC50: 0.821 µg/mL
  IC80: 2.81 µg/mL
  MPI: 100
[7]
  IC50: 0.01 µg/mL
  IC80: 0.036 µg/mL
  MPI: 100
[8]
  IC50: 0.186 µg/mL
  IC80: 0.966 µg/mL
  MPI: 100
[9]
  IC50: 0.051 µg/mL
  IC80: 0.2 µg/mL
  MPI: 100
[10]
  IC50: 0.045 µg/mL
  IC80: 0.2 µg/mL
  MPI: 100
[11]
  IC50: 0.223 µg/mL
  IC80: 1.37 µg/mL
  MPI: 100
[12]
  IC50: 0.559 µg/mL
  IC80: 4.53 µg/mL
  MPI: 100
[13]
  IC50: 0.477 µg/mL
  IC80: 1.73 µg/mL
  MPI: 100
[1]
  IC50: > 50 µg/mL
  IC80: > 50 µg/mL
  MPI: 4

## N49P9 (antibody)
[14]
  IC50: 0.074 µg/mL
  IC80: 0.244 µg/mL
  MPI: 100
[15]
  IC50: 0.06 µg/mL
  IC80: 0.209 µg/mL
  MPI: 100
[16]
  IC50: 17.6 µg/mL
  IC80: > 50 µg/mL
  MPI: 55
[17]
  IC50: 1.09 µg/mL
  IC80: 5.86 µg/mL
  MPI: 100
[18]
  IC50: 0.017 µg/mL
  IC80: 0.047 µg/mL
  MPI: 100
[19]
  IC50: > 50 µg/mL
  IC80: > 50 µg/mL
  MPI: 20
[20]
  IC50: 0.094 µg/mL
  IC80: 0.339 µg/mL
  MPI: 100
[21]
  IC50: 0.072 µg/mL
  IC80: 0.2 µg/mL
  MPI: 100
[22]
  IC50: 0.028 µg/mL
  IC80: 0.085 µg/mL
  MPI: 100
[23]
  IC50: > 50 µg/mL
  IC80: > 50 µg/mL
  MPI: 25
[24]
  IC50: > 50 µg/mL
  IC80: > 50 µg/mL
  MPI: 25
[25]
  IC50: 0.04 µg/mL
  IC80: 0.104 µg/mL
  MPI: 100
[26]
  IC50: 46.7 µg/mL
  IC80: > 50 µg/mL
  MPI: 51
[27]
  IC50: 0.07 µg/mL
  IC80: 0.252 µg/mL
  MPI: 100

## N49P9.1 (antibody)
[14]
  IC50: 0.067 µg/mL
  IC80: 0.237 µg/mL
  MPI: 100
[15]
  IC50: 0.076 µg/mL
  IC80: 0.223 µg/mL
  MPI: 100
[16]
  IC50: > 50 µg/mL
  IC80: > 50 µg/mL
  MPI: 45
[17]
  IC50: 1.35 µg/mL
  IC80: 8.26 µg/mL
  MPI: 95
[18]
  IC50: 0.03 µg/mL
  IC80: 0.082 µg/mL
  MPI: 100
[19]
  IC50: > 50 µg/mL
  IC80: > 50 µg/mL
  MPI: 6
[20]
  IC50: 0.163 µg/mL
  IC80: 0.695 µg/mL
  MPI: 100
[21]
  IC50: 0.062 µg/mL
  IC80: 0.218 µg/mL
  MPI: 100
[22]
  IC50: 0.06 µg/mL
  IC80: 0.163 µg/mL
  MPI: 100
[23]
  IC50: > 50 µg/mL
  IC80: > 50 µg/mL
  MPI: 7
[24]
  IC50: > 50 µg/mL
  IC80: > 50 µg/mL
  MPI: 5
[25]
  IC50: 0.101 µg/mL
  IC80: 0.278 µg/mL
  MPI: 100
[26]
  IC50: > 50 µg/mL
  IC80: > 50 µg/mL
  MPI: 10
[27]
  IC50: 0.091 µg/mL
  IC80: 0.392 µg/mL
  MPI: 100

## N49P11 (antibody)
[2]
  IC50: 4.77 µg/mL
  IC80: 14.2 µg/mL
  MPI: 100
[3]
  IC50: 5.19 µg/mL
  IC80: 22.6 µg/mL
  MPI: 100
[4]
  IC50: 0.038 µg/mL
  IC80: 0.135 µg/mL
  MPI: 100
[5]
  IC50: 0.38 µg/mL
  IC80: 3.27 µg/mL
  MPI: 100
[6]
  IC50: 3.33 µg/mL
  IC80: 13.2 µg/mL
  MPI: 100
[7]
  IC50: 0.221 µg/mL
  IC80: 1.64 µg/mL
  MPI: 100
[8]
  IC50: 0.259 µg/mL
  IC80: 1.94 µg/mL
  MPI: 100
[9]
  IC50: 0.034 µg/mL
  IC80: 0.254 µg/mL
  MPI: 100
[10]
  IC50: 0.027 µg/mL
  IC80: 0.103 µg/mL
  MPI: 100
[11]
  IC50: 0.303 µg/mL
  IC80: 1.59 µg/mL
  MPI: 100
[12]
  IC50: 1.35 µg/mL
  IC80: 8.98 µg/mL
  MPI: 100
[13]
  IC50: 1.05 µg/mL
  IC80: 6.53 µg/mL
  MPI: 100

## N49P18.1 (antibody)
[2]
  IC50: 30.5 µg/mL
  IC80: > 50 µg/mL
  MPI: 62
[3]
  IC50: 1.33 µg/mL
  IC80: 6.36 µg/mL
  MPI: 100
[4]
  IC50: 1.92 µg/mL
  IC80: 5.26 µg/mL
  MPI: 100
[5]
  IC50: 29 µg/mL
  IC80: > 50 µg/mL
  MPI: 68
[6]
  IC50: > 50 µg/mL
  IC80: > 50 µg/mL
  MPI: 37
[7]
  IC50: 1.13 µg/mL
  IC80: 8.31 µg/mL
  MPI: 100
[8]
  IC50: 8.31 µg/mL
  IC80: 33.3 µg/mL
  MPI: 88
[9]
  IC50: 1.16 µg/mL
  IC80: 6.93 µg/mL
  MPI: 100
[10]
  IC50: 3.04 µg/mL
  IC80: 8.13 µg/mL
  MPI: 100
[11]
  IC50: 12.5 µg/mL
  IC80: 49.8 µg/mL
  MPI: 84
[12]
  IC50: > 50 µg/mL
  IC80: > 50 µg/mL
  MPI: 20
[13]
  IC50: 1.3 µg/mL
  IC80: 4.51 µg/mL
  MPI: 99
[1]
  IC50: > 50 µg/mL
  IC80: > 50 µg/mL
  MPI: 0
